# Test results: patent US20260167679A1, “FUSION PROTEIN TARGETING MITOCHONDRIA, METHOD OF MAKING AND USE THEREOF” (UNIVERSITY OF ROCHESTER, priority 2020, published 2026)
# B1: mtON: fusion of the 187 N-terminal amino acids of mouse IMMT1 to the light-activated proton pump (Mac) from Leptosphaeria maculans (protein)
# chain: MLRACQLSGVTVAAQSCLCGKFVLRPLRPCRRYSTSSSSGLTAGKIAGAGLLFVGGGIGGTILYAKWDSHFRESVEKTIPYSDKLFGMVLGSAPYTVPLPKKPVQSGPLKISSVSEVMKDSKLPVAQSQKTKGDTPASAASTGAAQIISAAGDTLSVPAPAVQHEDTIKTECPNTNEGKSTSETTEEPAGLIVDQFEEVLMKTSQLFPLPTATQSAQPTHVAPVPTVLPDTPIYETVGDSGSKTLWVVFVLMLIASAAFTALSWKIPVNRRLYHVITTIITLTAALSYFAMATGHGVALNKIVIRTQHDHVPDTYETVYRQVYYARYIDWAITTPLLLLDLGLLAGMSGAHIFMAIVADLIMVLTGLFAAFGSEGTPQKWGWYTIACIAYIFVVWHLVLNGGANARVKGEKLRSFFVAIGAYTLILWTAYPIVWGLADGARKIGVDGEIIAYAVLDVLAKGVFGAWLLVTHANLRESDVELNGFWANGLNREGAIRIGEDDGAR
# modifications: Synthetic Complete mtON fusion protein sequence
# Experiments:
# C. elegans [1] = test: In vivo mitochondrial membrane potential (TMRE) in aged animals; set-up: species or system Caenorhabditis elegans
# Procedure: FIG. 8 is a composite of drawings showing that mtON restores lost membrane potential and increases lifespan. […] One-way ANOVA with Tukey's post hoc test for multiple comparisons, *p<0.05. Data are means±standard error of the mean. Panel B) mtON activation throughout adult life extends lifespan (n=?). […] Log rank Mantel Cox test for survival comparison, p=0.018.
# Panel A) Representative images of day 4 adult animals exposed to 100 nM TMRE for 24 hours. Pharynx region of interest (ROI) is outlined in dotted white lines. All animals were expressing mtON through single-copy CRISPR/Cas9 insertion to the genome. Panel B) Quantification of TMRE fluorescence in mtON-expressing day 4 adult animals exposed to 100 nM TMRE for 24 hours. Whole-body fluorescence as well as pharynx ROIs were quantified. Control represents animals exposed to light but without ATR supplementation. Statistics are student's two tailed unpaired t tests. * p<0.001.
# Scale bar, 250 μm. c, Quantification of relative TMRE fluorescence. One-way analysis of variance (ANOVA) with Tukey's multiple comparisons test, day 1 versus day 4, P=0.0001, day 1 versus day 10, P=0.0002, n=44, 18 and 30. Data are median±quartiles (dotted lines). d, Pharynx TMRE fluorescence normalized to mitochondrial mass in day 4 worms. […]
# [2] = system: mitochondria from HEK293T cells; test: TMRE membrane potential of mitochondria isolated from HEK293T cells; format: biochemical; conditions: 540-600 nm light, absence of succinate
# Excerpt: Stimulation of mtON with light results in polarization of the mitochondrial inner membrane. To determine whether mtON reaches the inner mitochondrial membrane in the correct orientation and to confirm the functional responsiveness of mtON, the study measured the mitochondrial membrane potential (Dym) using TMRE. The study first isolated mitochondria from HEK293T cells expressing mtON and treated them with succinate, a complex II ETC substrate, to generate a maximal mitochondrial membrane potential as a positive control (FIG. 9, panel D).
# Based on this model, light stimulation of mtON results in the polarization of the mitochondrial inner membrane. To determine whether mtON reaches the inner mitochondrial membrane in the correct orientation and to confirm the functional responsiveness of mtON, the mitochondrial inner membrane potential (Δψm) was measured using tetramethylrhodamine, ethyl ester (TMRE). TMRE is a lipophilic cationic dye that accumulates in the mitochondrial matrix proportional to the mitochondrial membrane potential. First, mitochondria were isolated from HEK293T cells expressing mtON and treated them with succinate, a substrate for the ETC (complex II), to induce a maximal mitochondrial membrane potential as a positive control.
# CD8+ T cells = test: CD8+ T cell migration on ICAM-1+CXCL12; format: cell-based, mouse
# Procedure: The velocity (A), displacement (B), track length (C), meandering index (D), and percent migrating cells (E) of Mock (or GFP) and mtOn expressing Day 4 CD8+ T cells migrating on ICAM-1+CXCL12. The percentage of migrating cells was calculated as the number of cells migrating 5-20 μm/min divided by the total number of cells in the field of view during the 20-minute movie. All movies received 500 nm illumination and were analyzed with Volocity software. All data shown as mean±SEM and analyzed by a two-tailed unpaired t-test with Welch's correction (A-D: includes four independent experiments, Mock: 271 cells, mtOn: 312 cells; E: n=4 movies on the same day). ns, not significant.
# After confirming mtON is expressed correctly, there followed additional functional experiments, specifically looking at cell migration in CD8+ T cells expressing mtON (PA-OxPhos). The migration conditions were the same as in previously described experiments, except we now used the Texas Red filter (˜500 nm) on an epifluorescent microscope to activate mtON while CD8+ T cells are migrating on ICAM-1+CXCL12. CD8+ T cells were sorted based on GFP expression and the mock negative control cells were GFP negative. Both mock and mtON expressing CD8+ T cells were treated identically.
# C. elegans [3] = test: Mitochondrial mass and unfolded protein response (staining, quantitative proteomics); format: in vivo, Caenorhabditis elegans
# Procedure: Scale bar is 10 μm. Experiment was performed 3 times with similar results. […] Scale bar is 10 μm. Experiment was performed 3 times with similar results. C) Relative pharynx TMRE fluorescence in mtON (ex. array) animals stained at day 4 of adulthood under the indicated conditions. One-way ANOVA with Tukey's test, *p=0.0001, n=33, 34, 26, 35 animals for each bar from left to right. D) Relative pharynx MitoTracker fluorescence in animals stained at day 4 of adulthood.
# Genes encoding proteins are as follows. Complex I: nuo-1, nuo-5. complex II: sdha-1, mev-1, sdhb-1. Complex III: isp-1. Complex IV: cox-5a. ATP synthase: R04F11.2, atp-5. Translocase of the outer membrane (TOM70): tomm-70. VDAC: vdac-1. Uniprot C. elegans proteome database protein codes are presented above each plot. B) Proteins that mediate the mitochondrial unfolded protein response are not affected by mtON activation, two-tailed unpaired t test, −ATR n=5, +ATR n=4 biological replicates. Genes encoding proteins are hsp-6 and hsp-60.
molecule,measurement,setting,value
B1,whole-animal measures of PMF,C. elegans [1]; mtON activation for 4 days into adulthood vs age-matched controls,significantly increased
same,age-related decline of Δψm,"C. elegans [1]; mtON activation, two different genetic backgrounds",reversed that decline
same,mitochondrial membrane potential (TMRE),[2],sufficient to rescue the mitochondrial membrane potential
same,overall percentage of migrating CD8+ T cells,CD8+ T cells; vs cells expressing GFP,large increase
same,cell displacement,"CD8+ T cells; ~500 nm illumination, vs mock",increase
same,cell velocity,"CD8+ T cells; ~500 nm illumination, vs mock",increase
same,meandering index,"CD8+ T cells; ~500 nm illumination, vs mock",increase
same,targets of the mitochondrial unfolded protein response,C. elegans [3]; after mtON activation,did not change
same,mitochondrial mass,C. elegans [3]; mitochondrial staining and quantitative proteomics,did not impact mitochondrial mass
